According to paper PMC5779621:

B1: recombinant human ST3Gal-IV (α2,3-sialyltransferase) (Homo sapiens) (protein)
chain: REDRYIELFYFPIPEKKEPCLQGEAESKASKLFGNYSRDQPIFLRLEDYFWVKTPSAYELPYGTKGSEDLLLRVLAITSSSIPKNIQSLRCRRCVVVGNGHRLRNSSLGDAINKYDVVIRLNNAPVAGYEGDVGSKTTMRLFYPESAHFDPKVENNPDTLLVLVAFKAMDFHWIETILSDKKRVRKGFWKQPPLIWDVNPKQIRILNPFFMEIAADKLLSLPMQQPRKIKQKPTTGLLAITLALHLCDLVHIAGFGYPDAYNKKQTIHYYEQITLKSMAGSGHNVSQEALAIKRMLEMGAIKNLTSF

Columns and labels:
[1] = target: Fibroblast growth factor receptor (human (endogenous in MCF-7)) (UniProt P11362); assay: Western blot of cell lysates for the receptor dimer
[2] = substrate: CC(=O)N[C@H]1[C@H]([C@H](O)[C@H](O)CO)O[C@](OP(=O)(O)OC[C@H]2O[C@@H](n3ccc(N)nc3=O)[C@H](O)[C@@H]2O)(C(=O)O)C[C@@H]1O; assay: purified protein; conditions: donor substrate; acceptor type II LacNAc

Molecule	stoichiometry N [1]	Km [2] [mM]
Fibroblast growth factor receptor (from UniProt P11362 22-822)	2	
B1		0.0734
